# Experimental data: the supplement of paper PMC9112550, “Optimization of the antimicrobial peptide Bac7 by deep mutational scanning” (BMC Biology, 2022)
# Test system: Escherichia coli TOP10
# Experiment: shrunken log2 fold change of peptide-encoding DNA abundance (4.5 h post-induction vs induction); higher = less antimicrobial activity (less host growth inhibition)
# Details: time post-induction: 4.5 h; library: site-saturation at positions 5, 18, 19, 20
# 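Note: peptides expressed intracellularly from a pBAD plasmid library in pooled LB shake-flask culture, induced with 0.3% L-arabinose, DNA abundance read by NGS, three biological replicates, DESeq2 with apeglm shrinkage.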
row,Sequence,shrunken log2 fold change
1,RRIRDRPPRLPRPRPRPDSWPRP,0.0194
2,RRIRQRPPRLPRPRPRPDNLPRP,-0.348
3,RRIRVRPPRLPRPRPRPCRLPRP,-0.0106
4,RRIRFRPPRLPRPRPRPYNSPRP,-0.136
5,RRIRVRPPRLPRPRPRPQMWPRP,0.0478
6,RRIRCRPPRLPRPRPRPDSNPRP,-0.488
7,RRIRRRPPRLPRPRPRPTTRPRP,0.941
8,RRIRYRPPRLPRPRPRPENKPRP,-0.725
9,RRIRWRPPRLPRPRPRPNYKPRP,-0.552
10,RRIRRRPPRLPRPRPRPYRCPRP,-1.3
11,RRIRPRPPRLPRPRPRPIIWPRP,-0.0266
12,RRIRPRPPRLPRPRPRPVHSPRP,0.127
13,RRIRTRPPRLPRPRPRPHIAPRP,-0.348
14,RRIRMRPPRLPRPRPRPIHCPRP,-0.105
15,RRIRARPPRLPRPRPRPSFPPRP,-0.0947
16,RRIRCRPPRLPRPRPRPLQQPRP,0.178
17,RRIRLRPPRLPRPRPRPNLKPRP,-0.367
18,RRIRGRPPRLPRPRPRPASDPRP,0.987
19,RRIRARPPRLPRPRPRPDACPRP,0.955
20,RRIRLRPPRLPRPRPRPSHYPRP,-0.367
21,RRIRMRPPRLPRPRPRPLGSPRP,0.169
22,RRIRSRPPRLPRPRPRPRWRPRP,0.375
23,RRIRARPPRLPRPRPRPMNWPRP,0.351
24,RRIRLRPPRLPRPRPRPYSEPRP,-1.71
25,RRIRQRPPRLPRPRPRPFMIPRP,0.0993

row,Sequence,shrunken log2 fold change
1,RRIRERPPRLPRPRPRPQNFPRP,-0.486
2,RRIRGRPPRLPRPRPRPMDYPRP,0.0324
3,RRIRFRPPRLPRPRPRPSTLPRP,-0.757
4,RRIRIRPPRLPRPRPRPAGAPRP,0.359
5,RRIRDRPPRLPRPRPRPTICPRP,-0.232
6,RRIRQRPPRLPRPRPRPTTGPRP,0.0143
7,RRIRVRPPRLPRPRPRPEAGPRP,0.553
8,RRIRQRPPRLPRPRPRPHFCPRP,0.0177
9,RRIRNRPPRLPRPRPRPTLNPRP,-0.105
10,RRIRERPPRLPRPRPRPFKNPRP,-0.174
11,RRIRIRPPRLPRPRPRPDHKPRP,-0.413
12,RRIRKRPPRLPRPRPRPRIVPRP,0.161
13,RRIRERPPRLPRPRPRPDPFPRP,-0.102
14,RRIRVRPPRLPRPRPRPQADPRP,0.0259
15,RRIRERPPRLPRPRPRPACSPRP,0.115
16,RRIRQRPPRLPRPRPRPYKFPRP,-0.0369
17,RRIRGRPPRLPRPRPRPWVHPRP,-0.0245
18,RRIRTRPPRLPRPRPRPWEQPRP,0.0248
19,RRIRCRPPRLPRPRPRPFMLPRP,-0.697
20,RRIRQRPPRLPRPRPRPRPVPRP,0.336
21,RRIRWRPPRLPRPRPRPPAVPRP,0.698
22,RRIRIRPPRLPRPRPRPYWMPRP,-0.379
23,RRIRHRPPRLPRPRPRPTLWPRP,0.246
24,RRIRPRPPRLPRPRPRPIITPRP,-0.587
25,RRIRMRPPRLPRPRPRPRSIPRP,0.667

row,Sequence,shrunken log2 fold change
1,RRIRGRPPRLPRPRPRPLKAPRP,0.0177
2,RRIRFRPPRLPRPRPRPNGYPRP,-0.3
3,RRIRNRPPRLPRPRPRPDWVPRP,0.134
4,RRIRCRPPRLPRPRPRPALKPRP,0.0946
5,RRIRFRPPRLPRPRPRPVPDPRP,-0.136
6,RRIRVRPPRLPRPRPRPLFHPRP,-0.311
7,RRIRIRPPRLPRPRPRPEVCPRP,0.503
8,RRIRLRPPRLPRPRPRPQKQPRP,0.17
9,RRIRSRPPRLPRPRPRPINAPRP,-0.377
10,RRIRRRPPRLPRPRPRPYNCPRP,0.00861
11,RRIRYRPPRLPRPRPRPHTCPRP,-0.191
12,RRIRWRPPRLPRPRPRPTPNPRP,0.519
13,RRIRYRPPRLPRPRPRPMYSPRP,-0.018
14,RRIRKRPPRLPRPRPRPPWWPRP,0.777
15,RRIRLRPPRLPRPRPRPMSRPRP,-0.00152
16,RRIRCRPPRLPRPRPRPSCYPRP,-0.295
17,RRIRIRPPRLPRPRPRPLGPPRP,0.0624
18,RRIRARPPRLPRPRPRPKKRPRP,0.626
19,RRIRERPPRLPRPRPRPYKNPRP,-0.756
20,RRIRDRPPRLPRPRPRPNFKPRP,-0.0287
21,RRIRNRPPRLPRPRPRPSMNPRP,-0.578
22,RRIRTRPPRLPRPRPRPQTFPRP,-0.567
23,RRIRARPPRLPRPRPRPWWTPRP,0.239
24,RRIRVRPPRLPRPRPRPVVMPRP,-0.271
25,RRIRTRPPRLPRPRPRPNQMPRP,-0.334

row,Sequence,shrunken log2 fold change
1,RRIRIRPPRLPRPRPRPPQHPRP,-0.107
2,RRIRKRPPRLPRPRPRPKERPRP,-0.0188
3,RRIRSRPPRLPRPRPRPKPHPRP,0.213
4,RRIRTRPPRLPRPRPRPDFKPRP,-0.172
5,RRIRSRPPRLPRPRPRPHNPPRP,-0.531
6,RRIRCRPPRLPRPRPRPTGVPRP,0.619
7,RRIRARPPRLPRPRPRPVCEPRP,0.836
8,RRIRHRPPRLPRPRPRPQTRPRP,-0.148
9,RRIRNRPPRLPRPRPRPTLTPRP,0.0952
10,RRIRKRPPRLPRPRPRPCAFPRP,0.0922
11,RRIRWRPPRLPRPRPRPQMTPRP,-0.0595
12,RRIRIRPPRLPRPRPRPIQIPRP,-0.0257
13,RRIRFRPPRLPRPRPRPMVEPRP,-0.0547
14,RRIRNRPPRLPRPRPRPVYWPRP,0.0175
15,RRIRWRPPRLPRPRPRPQYLPRP,-0.12
16,RRIRARPPRLPRPRPRPDPEPRP,0.939
17,RRIRWRPPRLPRPRPRPAPHPRP,0.491
18,RRIRERPPRLPRPRPRPPDVPRP,-0.108
19,RRIRFRPPRLPRPRPRPHIMPRP,-0.709
20,RRIRRRPPRLPRPRPRPAQYPRP,0.34
21,RRIRWRPPRLPRPRPRPHKCPRP,0.188
22,RRIRMRPPRLPRPRPRPAKVPRP,0.303
23,RRIRMRPPRLPRPRPRPLKGPRP,-0.0357
24,RRIRLRPPRLPRPRPRPNLEPRP,0.0534
25,RRIRERPPRLPRPRPRPSALPRP,-0.373

row,Sequence,shrunken log2 fold change
1,RRIRMRPPRLPRPRPRPGNNPRP,-0.0591
2,RRIRMRPPRLPRPRPRPKLTPRP,1.14
3,RRIRHRPPRLPRPRPRPCLPPRP,-0.041
4,RRIRERPPRLPRPRPRPCYSPRP,-0.704
5,RRIRIRPPRLPRPRPRPWKPPRP,-0.093
6,RRIRERPPRLPRPRPRPRTCPRP,-0.0174
7,RRIRWRPPRLPRPRPRPWDIPRP,-0.309
8,RRIRTRPPRLPRPRPRPSRFPRP,0.244
9,RRIRERPPRLPRPRPRPEKYPRP,-0.534
10,RRIRERPPRLPRPRPRPSASPRP,-0.13
11,RRIRSRPPRLPRPRPRPDTMPRP,-0.462
12,RRIRWRPPRLPRPRPRPRTVPRP,0.0512
13,RRIRDRPPRLPRPRPRPLVAPRP,0.912
14,RRIRLRPPRLPRPRPRPPHRPRP,0.182
15,RRIRNRPPRLPRPRPRPDVCPRP,-0.00695
16,RRIRARPPRLPRPRPRPLECPRP,0.184
17,RRIRKRPPRLPRPRPRPALGPRP,0.0812
18,RRIRHRPPRLPRPRPRPKCWPRP,0.123
19,RRIRKRPPRLPRPRPRPHVFPRP,0.015
20,RRIRDRPPRLPRPRPRPIVDPRP,-0.000946
21,RRIRERPPRLPRPRPRPPRFPRP,0.26
22,RRIRWRPPRLPRPRPRPFWIPRP,0.0876
23,RRIRFRPPRLPRPRPRPTPGPRP,0.677
24,RRIRARPPRLPRPRPRPRNMPRP,0.263
25,RRIRSRPPRLPRPRPRPRVCPRP,0.366
